Experiments:
HCT15 tumor xenograft = assay: Established HCT15 tumor xenograft model; format: in vivo, mice; conditions: antibody 500 ug twice weekly for four weeks; gemcitabine 120 mg/kg q3d ×2
Protocol: For each experimental group, data is plotted until the first animal presents with a tumor greater than 1000 mm^3.
LUCA31 was particularly active in blocking the proliferation of the colon carcinoma cell line HCT15. […] In this study, groups of 15 mice were treated twice weekly with 500 ug of antibody for four weeks. Gemcitabine was dosed on a q3d ×2 schedule at 120 mg/kg, which is near the MTD. Treatment was initiated when tumor volumes averaged 70 mm^3. In FIG. 16A, the median tumor volumes are shown and in FIG. 16B, the mean tumor volumes with error bars are presented. In this experiment, the LUCA31 antibody produced a tumor growth delay of greater than 14 days, relative to the saline control. Gemcitabine produced a 20-day tumor growth delay and the combination of LUCA31 and gemcitabine produced a tumor growth delay of 18 days relative to gemcitabine alone.

[1] = biological target: human transferrin receptor, full length, on cells (human) (UniProt P02786); assay: cell-based or functional assay
Chain of UniProt P02786 (P02786 whole entry): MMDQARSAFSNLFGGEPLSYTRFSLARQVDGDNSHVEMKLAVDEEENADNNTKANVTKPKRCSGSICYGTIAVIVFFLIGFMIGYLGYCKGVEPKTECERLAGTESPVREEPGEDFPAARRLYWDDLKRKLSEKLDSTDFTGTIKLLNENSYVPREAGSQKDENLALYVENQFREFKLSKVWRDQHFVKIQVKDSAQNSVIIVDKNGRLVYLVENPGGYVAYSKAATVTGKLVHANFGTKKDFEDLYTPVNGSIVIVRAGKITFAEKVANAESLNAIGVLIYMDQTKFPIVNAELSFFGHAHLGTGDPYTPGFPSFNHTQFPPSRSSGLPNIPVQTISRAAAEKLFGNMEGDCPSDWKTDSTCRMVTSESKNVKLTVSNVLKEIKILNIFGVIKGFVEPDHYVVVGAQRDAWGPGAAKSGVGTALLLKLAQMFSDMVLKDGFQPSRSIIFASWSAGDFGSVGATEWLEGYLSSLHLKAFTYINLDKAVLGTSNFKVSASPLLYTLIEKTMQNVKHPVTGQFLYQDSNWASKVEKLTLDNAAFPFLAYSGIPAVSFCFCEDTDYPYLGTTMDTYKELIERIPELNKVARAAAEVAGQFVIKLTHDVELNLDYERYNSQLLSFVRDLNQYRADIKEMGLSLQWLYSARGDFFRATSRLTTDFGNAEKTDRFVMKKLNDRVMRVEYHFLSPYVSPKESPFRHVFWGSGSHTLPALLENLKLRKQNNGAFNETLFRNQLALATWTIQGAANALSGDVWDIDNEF

Maximum inhibition (% inhibition) of cell proliferation, Calu6 cells [1] [%]	Maximum inhibition (% inhibition) of cell proliferation, Colo205 cells [1] [%]	Maximum inhibition (% inhibition) of cell proliferation, LS174T cells [1] [%]	Maximum inhibition (% inhibition) of cell proliferation, SW48 cells [1] [%]	growth inhibition (MTT), 786-O cells, LUCA31 at 20 ug/ml [1] [%]	growth inhibition (MTT), Colo205 cells, LUCA31 at 20 ug/ml [1] [%]	growth inhibition (MTT), MDA-MB-175VII cells, LUCA31 at 20 ug/ml [1] [%]	growth inhibition (MTT), SKMES-1 cells, LUCA31 at 20 ug/ml [1] [%]	maximum inhibition of cell proliferation (tritiated thymidine incorporation), Calu-6 cells [1] [%]	Compound	tumor growth delay relative to the saline control (HCT15 tumor xenograft) [days]
									Nc1ccn([C@@H]2O[C@H](CO)[C@@H](O)C2(F)F)c(=O)n1 [Gemcitabine, gemcitabine]	20
25	25	35	35	54	37	35	45	45	LUCA31 monoclonal antibody (mouse anti-human transferrin receptor antibody produced by hybridoma CA130.3.13C9.1A7, ATCC PTA-6055)	
0	25		0						transferrin receptor antibody 42/6	

— US7572895B2, “Transferrin receptor antibodies” (Raven Biotechnologies, Inc., priority 2004, dated 2009)
